Assay results from US20220119448A1.

Assays:
[1] = target: GLP-2R (GLP-2 receptor) on GLP-2R/Luc-CHO cells; assay: cell-based or functional assay
GHR on Ba/f3-GHR cells = assay: cell-based or functional assay

in vitro cytological activity, EC50 (luciferase reporter, GLP-2R/Luc-CHO cells) [1] | In vitro cytological activity, EC50 (Ba/f3-GHR cells, MTT) (GHR on Ba/f3-GHR cells) | Substance
5.2 nM |  | GLP-2 (Hangzhou Chinese Peptide Biochemical Co., Ltd., Cat. No: GLUC-002A)
 | 0.54 nM | hGH (human auxin) (from UniProt P01241 27-217) (ligand)
